The target in data set [1] is T1, HIS-TRB1 (Arabidopsis thaliana, UniProt Q8VWK4 1-300).
T1 sequence: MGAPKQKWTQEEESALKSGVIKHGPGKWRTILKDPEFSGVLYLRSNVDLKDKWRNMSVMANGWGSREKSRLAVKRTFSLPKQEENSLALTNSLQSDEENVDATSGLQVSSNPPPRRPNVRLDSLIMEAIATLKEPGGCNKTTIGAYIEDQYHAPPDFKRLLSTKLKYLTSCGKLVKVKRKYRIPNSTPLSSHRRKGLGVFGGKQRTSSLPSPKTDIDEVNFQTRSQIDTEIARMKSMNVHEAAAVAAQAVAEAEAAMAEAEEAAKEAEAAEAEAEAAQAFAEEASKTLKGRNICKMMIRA
Description: MST; MST: 50 mM NaPO4, 300 mM NaCl, pH 7.5, 0.05% Tween 20, 1.25 mg/ml BSA; 20 nM Cy3-dsDNA, 260 pM-8.5 uM protein; 10 min at RT. The note with it: protein: recombinant; tags: 6xHis (pET-28b); label: 5'-Cy3 on both strands; blunt.

The target in data set [2] is T2, HIS-TRB3 (Arabidopsis thaliana, UniProt Q9M2X3 1-295).
T2 sequence: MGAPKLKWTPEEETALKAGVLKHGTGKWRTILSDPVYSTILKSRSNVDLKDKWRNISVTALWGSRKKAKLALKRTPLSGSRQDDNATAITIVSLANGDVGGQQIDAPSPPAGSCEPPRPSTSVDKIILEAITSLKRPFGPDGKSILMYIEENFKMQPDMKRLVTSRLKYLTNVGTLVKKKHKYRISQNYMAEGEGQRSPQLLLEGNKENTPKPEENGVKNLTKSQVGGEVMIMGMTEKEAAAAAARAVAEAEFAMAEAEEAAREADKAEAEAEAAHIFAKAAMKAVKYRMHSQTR
The data set is described as above. The note with it: protein: recombinant; tags: 6xHis (pET-28b); label: 5'-Cy3 on both strands; blunt.

B1: (C)GACCTAA (dsDNA)
DNA 1: CATCATGGCGACCTAAGGCTGGTACTAG
DNA 2: CTAGTACCAGCCTTAGGTCGCCATGATG
Broadly, the Kd is the equilibrium constant for the complex coming apart. Turning to B1, the binding result in data set [1] is reported as “no binding”. Further, the Kd in data set [2] amounted to 652 ± 64 nM.

B2: proSEP3-telo-box (dsDNA)
DNA 1: TTTAAATGTTAGGGTTTTTTGTAGGATT
DNA 2: AATCCTACAAAAAACCCTAACATTTAAA
As to B2, the binding result in data set [1] is “no binding”. In data set [2], the dissociation constant (Kd) stood at 640 ± 19 nM.

B3: (C)AACCTAA (dsDNA)
DNA 1: CATCATGGCAACCTAAGGCTGGTACTAG
DNA 2: CTAGTACCAGCCTTAGGTTGCCATGATG
B3: the equilibrium dissociation constant (Kd) worked out at 4900 ± 1000 nM in data set [1] and 298 ± 48 nM in data set [2].

B4: R4 telo-box (4x repeat) (dsDNA)
DNA 1: GGTTTAGGGTTTAGGGTTTAGGGTTTAG
DNA 2: CTAAACCCTAAACCCTAAACCCTAAACC
With B4, the Kd in data set [1] stood at 567 ± 180 nM; in data set [2], 531 ± 30 nM.
